Where two headings read alike, the source gives them in different places.
Assays:
[1] = molecular target: T1, human FolR2 ECD-AcTev-Fcknob-Avi tag + Fc hole, biotinylated monomeric Fc fusion (human, UniProt P0DOX5 223-449 = IgG part); assay: SPR, IgG single injection
T1 construct: also called huFolR2; FolR2-Fc

[2] = molecular target: T2, human FolR3 ECD-AcTev-Fcknob-Avi tag + Fc hole, biotinylated monomeric Fc fusion (human, UniProt P0DOX5 223-449 = IgG part); assay: SPR, IgG single injection
T2 construct: also called huFolR3; FolR3-Fc

[3] = molecular target: T3, human FolR1 ECD-AcTev-Fcknob-Avi tag + Fc hole, biotinylated monomeric Fc fusion (human, UniProt P0DOX5 223-449 = IgG part); assay: SPR, apparent KD, bivalent binding (avidity)
T3 construct: also called huFolR1; huFolR1-Fc
Experimental: (§1) Binding of FolR1 binders as IgG or in the T-cell bispecific format to different recombinant folate receptors (human FolR1, 2 and 3, murine FolR1 and cynomolgus FolR1; all as Fc fusions) was assessed by surface plasmon resonance (SPR).
(§2) Recombinant biotinylated monomeric Fc fusions of human, cynomolgus and murine Folate Receptor 1 (FolR1-Fc) were directly coupled on a SA chip using the standard coupling instruction (Biacore, Freiburg/Germany). The immobilization level was about 300-400 RU. The anti-FolR1 IgGs or T cell bispecifics were passed at a concentration range from 2.1 to 500 nM with a flow of 30 μL/minutes through the flow cells over 180 seconds. The dissociation was monitored for 600 seconds. Bulk refractive index differences were corrected for by subtracting the response obtained on reference flow cell immobilized with recombinant biotinylated IL2 receptor Fc fusion. […] The binding curves resulting from the bivalent binding of the IgGs or T cell bispecifics were approximated to a 1:1 Langmuir binding and fitted with that model (which is not correct, but gives an idea of the avidity). The apparent avidity constants for the interactions were derived from the rate constants of the fitting using the Bia Evaluation software (GE Healthcare).

[4] = molecular target: T4, cynomolgus FolR1 ECD-AcTev-Fcknob-Avi tag + Fc hole, biotinylated monomeric Fc fusion (cynomolgus, UniProt P0DOX5 223-449 = IgG part); assay: SPR, apparent KD, bivalent binding (avidity)
T4 construct: also called cyFolR1; cyno FolR1-Fc
Experimental: as §1, §2

[5] = molecular target: T5, murine FolR1 ECD-AcTev-Fcknob-Avitag + Fc hole, biotinylated monomeric Fc fusion (murine, UniProt P0DOX5 223-449 = IgG part); assay: SPR, apparent KD, bivalent binding (avidity)
T5 construct: also called muFolR1; murine FolR1-Fc
Experimental: as §1, §2

[6] = molecular target: T3, human FolR1 ECD-AcTev-Fcknob-Avi tag + …; assay: SPR, bivalent binding (avidity), antigen on SA chip
Experimental: as §1, §2

[7] = molecular target: T4, cynomolgus FolR1 ECD-AcTev-Fcknob-Avi …; assay: as above
Experimental: as §1, §2

[8] = molecular target: T5, murine FolR1 ECD-AcTev-Fcknob-Avitag + …; assay: as above
Experimental: as §1, §2

human FolR1 on cells [9] = molecular target: T6, human FolR1 on cells (human, UniProt P15328 25-234); assay: flow cytometry on HeLa cells (human FolR1), fluorescently labeled anti-human secondary antibody
T6 construct: also called FolR1 on HeLa, SKOV3, HT-29 tumor cells; HEK cells transfected with human FolR1
Experimental: (§3) Binding of newly generated FolR1 binders to FolR1 expressed on HeLa cells were determined by flow cytometry. Bound antibodies were detected with a fluorescently labeled anti-human secondary antibody.
(§4) The identified binders were converted into a human IgG1 format and binding to FolR1 high expressing HeLa cells was addressed.

[10] = molecular target: T7, cynomolgus FolR1 on transiently transfected HEK cells (cynomolgus, UniProt P15328 25-234 (human entry)); assay: flow cytometry on HEK cells transiently transfected with cyno FolR1, anti-human secondary antibody
T7 construct: also called cyno FolR1; cyFoLR1
Text: Cross-reactivity of the FolR1 antibodies to cyno FolR1 was addressed on HEK cells transiently transfected with cyFolR1 by flow cytometry. The antibodies were detected with a fluorescently labeled anti-human secondary antibody.
In parallel cross-reactivity of the FolR1 clones to cyno FolR1 was addressed by performing binding studies to HEK cells transiently transfected with cyno FolR1.

[11] = molecular target: human FolR2 on transiently transfected HEK cells (human, UniProt P14207 17-230); assay: flow cytometry on HEK cells transiently transfected with human FolR2, anti-human secondary antibody; concentration not given
[12] = molecular target: T3, human FolR1 ECD-AcTev-Fcknob-Avi tag + …; assay: SPR, IgG single injection
[13] = molecular target: T4, cynomolgus FolR1 ECD-AcTev-Fcknob-Avi …; assay: SPR, IgG single injection
[14] = molecular target: T5, murine FolR1 ECD-AcTev-Fcknob-Avitag + …; assay: SPR, apparent KD, bivalent binding, 2.3 uM folate in running buffer
Experimental: as §1, §2

human FolR1 on cells [15] = molecular target: T6, human FolR1 on cells; assay: flow cytometry on HeLa cells (human FolR1), fluorescently labeled anti-human secondary antibody; remark: listed apart in the source
Experimental: as §3, §4

[16] = molecular target: T5, murine FolR1 ECD-AcTev-Fcknob-Avitag + …; assay: SPR, 500 nM IgG single injection

T6 sequence (P15328 25-234 limits assumed): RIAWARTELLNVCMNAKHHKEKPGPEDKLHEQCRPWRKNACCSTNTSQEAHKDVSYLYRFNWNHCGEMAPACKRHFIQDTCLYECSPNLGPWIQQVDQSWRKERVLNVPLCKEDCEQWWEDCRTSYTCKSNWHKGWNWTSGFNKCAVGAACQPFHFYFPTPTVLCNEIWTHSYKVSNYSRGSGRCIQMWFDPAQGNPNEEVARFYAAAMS
T7 sequence (P15328 other isoform, or with tags, fused parts or gaps limits assumed): as the sequence (P15328 25-234 limits assumed) above, with I2T, W4R, R37K, Q117R, A146P, H171Y counted along it
human FolR2 on transiently transfected HEK cells, sequence (P14207 17-230 limits assumed): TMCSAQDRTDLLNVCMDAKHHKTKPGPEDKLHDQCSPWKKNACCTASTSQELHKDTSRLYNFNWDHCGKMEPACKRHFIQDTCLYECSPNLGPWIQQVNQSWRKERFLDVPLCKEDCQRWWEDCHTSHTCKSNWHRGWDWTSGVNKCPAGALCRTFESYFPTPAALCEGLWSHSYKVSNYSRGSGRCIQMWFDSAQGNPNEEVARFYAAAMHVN

Binder	binding result [1]	binding result [2]	Kd [3]	Kd [4]	Kd [5]	koff [6]	kon [6]	koff [7]	kon [7]	koff [8]	kon [8]	binding result (human FolR1 on cells [9])	binding result [10]	binding result [11]	binding result [12]	binding result [13]	Kd [14]	binding result (human FolR1 on cells [15])	binding result [16]
36F2 IgG (antibody, V domains shown, human IgG1) VH: QVQLVQSGAEVKKPGASVKVSCKASGYTFTSYYMHWVRQAPGQGLEWMGIINPSGGSTSYAQKFQGRVTMTHDTSTSTVYMELSSLRSEDTAVYYCARSFFTGFHLDYWGQGTLVTVSS VL: EIVLTQSPGTLSLSPGERATLSCRASQSVSSSYLAWYQQKPGQAPRLLIYGASSRATGIPDRFSGSGSGTDFTLTISRLEPEDFAVYYCQQYTNEHYYTFGQGTKVEIK	no binding (tested: 500 nM)	no binding (tested: 500 nM)	5.74 nM	5.31 nM	1.63 nM	0.0151 s⁻¹	2.62e+06 M⁻¹ s⁻¹	0.016 s⁻¹	3.02e+06 M⁻¹ s⁻¹	0.000603 s⁻¹	370000 M⁻¹ s⁻¹	binds	binds	no binding	–	–	–	–	–
19H3 IgG (antibody, V domains shown, human IgG1) VH: QVQLVQSGAEVKKPGASVKVSCKASGYTFTSYYMHWVRQAPGQGLEWMGIINPSGGSTSYAQKFQGRVTMTRDTSTSTVYMELSSLRSEDTAVYYCARTGWSRWGYMDYWGQGTLVTVSS VL: QAVVTQEPSLTVSPGGTVTLTCGSSTGAVTTSNYANWVQEKPGQAFRGLIGGTNKRAPGTPARFSGSLLGGKAALTLSGAQPEDEAEYYCALWYSNLWVFGGGTKLTVL	no binding (tested: 500 nM)	no binding (tested: 500 nM)	–	–	–	–	–	–	–	–	–	–	–	–	no binding (tested: 500 nM)	no binding (tested: 500 nM)	1.55 nM	binds	–
20H7 IgG (antibody, V domains shown, human IgG1) VH: QVQLVQSGAEVKKPGASVKVSCKASGYTFTSYYMHWVRQAPGQGLEWMGIINPSGGSTSYAQKFQGRVTMTRDTSTSTVYMELSSLRSEDTAVYYCARVGWYRWGYMDYWGQGTLVTVSS VL: QAVVTQEPSLTVSPGGTVTLTCGSSTGAVTTSNYANWVQEKPGQAFRGLIGGTNKRAPGTPARFSGSLLGGKAALTLSGAQPEDEAEYYCALWYSNLWVFGGGTKLTVL	no binding (tested: 500 nM)	no binding (tested: 500 nM)	–	–	–	–	–	–	–	–	–	–	–	–	–	–	–	–	binds

— patent US20210087291A1 (Hoffmann-La Roche, published 2021)
